Data set [1] deals with the molecule itself. Nature of the data set: AUC.
The target in data set [2] is T1, DnaB (native) (Bacillus subtilis, UniProt P07908 1-472).
T1 sequence: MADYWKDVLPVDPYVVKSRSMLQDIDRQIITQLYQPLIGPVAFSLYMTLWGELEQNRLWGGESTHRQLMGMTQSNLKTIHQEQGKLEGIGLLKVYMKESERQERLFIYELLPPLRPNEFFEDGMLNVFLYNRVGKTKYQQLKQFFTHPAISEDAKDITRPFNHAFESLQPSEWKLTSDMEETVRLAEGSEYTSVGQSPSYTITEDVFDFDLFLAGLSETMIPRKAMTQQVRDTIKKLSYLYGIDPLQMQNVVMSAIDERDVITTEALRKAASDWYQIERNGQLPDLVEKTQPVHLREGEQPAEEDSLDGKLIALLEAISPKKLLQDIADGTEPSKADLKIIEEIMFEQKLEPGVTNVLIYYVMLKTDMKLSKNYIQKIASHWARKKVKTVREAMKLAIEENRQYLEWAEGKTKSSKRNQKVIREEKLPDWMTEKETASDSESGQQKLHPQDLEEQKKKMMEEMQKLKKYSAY
Briefly: EMSA.

Data set [3] concerns the target T2, DnaBN, DnaB(1-300) (Bacillus subtilis, UniProt P07908 1-300).
T2 sequence: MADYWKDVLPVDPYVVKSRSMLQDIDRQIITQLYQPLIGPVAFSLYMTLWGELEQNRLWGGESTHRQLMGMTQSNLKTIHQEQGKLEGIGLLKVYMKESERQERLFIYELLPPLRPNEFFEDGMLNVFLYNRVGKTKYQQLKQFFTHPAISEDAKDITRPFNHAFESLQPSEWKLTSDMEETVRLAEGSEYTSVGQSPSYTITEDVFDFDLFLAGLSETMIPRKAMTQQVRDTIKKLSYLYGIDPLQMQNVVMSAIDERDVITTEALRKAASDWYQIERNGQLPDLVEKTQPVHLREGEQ
Nature of the data set: EMSA. On the technique in general: A gel shift assay detects complexes by their altered migration in electrophoresis.

Data set [4] deals with the molecule itself. Nature of the data set: AUC. This is another data set of the same source.
Data set [5] has as its target T2, DnaBN, DnaB(1-300). Nature of the data set: EMSA. This is another data set of the same source.
Data set [6] deals with T1, DnaB (native). Briefly: EMSA. This is another data set of the same source.
For data set [7], the target named is T2, DnaBN, DnaB(1-300). Briefly: EMSA. The source holds these as a separate data set.

Like-named read-outs stand apart in the source and are kept apart here.

B1: DnaB(1-428), C-terminally truncated DnaB (domain or fragment, B. subtilis, UniProt P07908 1-428, looked up)
chain: MADYWKDVLPVDPYVVKSRSMLQDIDRQIITQLYQPLIGPVAFSLYMTLWGELEQNRLWGGESTHRQLMGMTQSNLKTIHQEQGKLEGIGLLKVYMKESERQERLFIYELLPPLRPNEFFEDGMLNVFLYNRVGKTKYQQLKQFFTHPAISEDAKDITRPFNHAFESLQPSEWKLTSDMEETVRLAEGSEYTSVGQSPSYTITEDVFDFDLFLAGLSETMIPRKAMTQQVRDTIKKLSYLYGIDPLQMQNVVMSAIDERDVITTEALRKAASDWYQIERNGQLPDLVEKTQPVHLREGEQPAEEDSLDGKLIALLEAISPKKLLQDIADGTEPSKADLKIIEEIMFEQKLEPGVTNVLIYYVMLKTDMKLSKNYIQKIASHWARKKVKTVREAMKLAIEENRQYLEWAEGKTKSSKRNQKVIREEKLP
As usually defined, the stoichiometry N is the number of molecules, sites or subunits per partner or assembly. With B1, the “stoichiometry N” value in data set [1] was found to be 4. Turning to TTTTTTTTTTTTTTTTTTTTTTTTTTTTTTTTTTTTTTTTTTTTT (ssDNA) [dT45], the binding result in data set [2] and in data set [3] was “binds” throughout.

B2: DnaBN, DnaB residues 1-300 (N-terminal domain plus the central domain) (domain or fragment, B. subtilis, UniProt P07908 1-300, looked up)
chain: MADYWKDVLPVDPYVVKSRSMLQDIDRQIITQLYQPLIGPVAFSLYMTLWGELEQNRLWGGESTHRQLMGMTQSNLKTIHQEQGKLEGIGLLKVYMKESERQERLFIYELLPPLRPNEFFEDGMLNVFLYNRVGKTKYQQLKQFFTHPAISEDAKDITRPFNHAFESLQPSEWKLTSDMEETVRLAEGSEYTSVGQSPSYTITEDVFDFDLFLAGLSETMIPRKAMTQQVRDTIKKLSYLYGIDPLQMQNVVMSAIDERDVITTEALRKAASDWYQIERNGQLPDLVEKTQPVHLREGEQ
By Kd is commonly meant the equilibrium constant for the complex coming apart. A higher Kd goes with weaker binding. In the case of B2, in data set [4], the affinity, expressed as Kd, was 500 nM and the “stoichiometry N” value came to 4.

B3: DnaB(1-365), C-terminally truncated DnaB (domain or fragment, B. subtilis, UniProt P07908 1-365, looked up)
chain: MADYWKDVLPVDPYVVKSRSMLQDIDRQIITQLYQPLIGPVAFSLYMTLWGELEQNRLWGGESTHRQLMGMTQSNLKTIHQEQGKLEGIGLLKVYMKESERQERLFIYELLPPLRPNEFFEDGMLNVFLYNRVGKTKYQQLKQFFTHPAISEDAKDITRPFNHAFESLQPSEWKLTSDMEETVRLAEGSEYTSVGQSPSYTITEDVFDFDLFLAGLSETMIPRKAMTQQVRDTIKKLSYLYGIDPLQMQNVVMSAIDERDVITTEALRKAASDWYQIERNGQLPDLVEKTQPVHLREGEQPAEEDSLDGKLIALLEAISPKKLLQDIADGTEPSKADLKIIEEIMFEQKLEPGVTNVLIYYVMLK
With B3, in data set [1], the “stoichiometry N” value was found to be 4.

B4: dT90 (ssDNA)
DNA: TTTTTTTTTTTTTTTTTTTTTTTTTTTTTTTTTTTTTTTTTTTTTTTTTTTTTTTTTTTTTTTTTTTTTTTTTTTTTTTTTTTTTTTTTT
In the case of B4, the binding result in data set [5] and in data set [6] was “binds” each time.

B5: dT135 (ssDNA)
DNA: TTTTTTTTTTTTTTTTTTTTTTTTTTTTTTTTTTTTTTTTTTTTTTTTTTTTTTTTTTTTTTTTTTTTTTTTTTTTTTTTTTTTTTTTTTTTTTTTTTTTTTTTTTTTTTTTTTTTTTTTTTTTTTTTTTTTTTT
For B5, the binding result in data set [7] and in data set [6] was “binds” each time.

Source of the values: publication PMC2874997 (Nucleic Acids Research, 2010).
